For series [1], the system named is MCM8 (FLAG-MCM8);MCM9 (MBP-MCM9) (human;human). The series is described as follows: EMSA. Particulars: EMSA: 25 mM Tris acetate pH 7.5, 3 mM EDTA (or 4 mM ATP + 1 mM Mg acetate), 1 mM DTT, 0.1 mg/ml BSA, 1 nM DNA (100 ng for plasmid-length DNA), 15 min on ice ….
Series [2] addresses human MCM8–9 complex, wild type (FLAG-MCM8 with MBP-MCM9, co-expressed) (human) (UniProt Q9UJA3).

Chain of human MCM8–9 complex, wild type (FLAG-MCM8 with MBP-MCM9, co-expressed) (human) (Q9UJA3 whole entry, chain 1 of 2): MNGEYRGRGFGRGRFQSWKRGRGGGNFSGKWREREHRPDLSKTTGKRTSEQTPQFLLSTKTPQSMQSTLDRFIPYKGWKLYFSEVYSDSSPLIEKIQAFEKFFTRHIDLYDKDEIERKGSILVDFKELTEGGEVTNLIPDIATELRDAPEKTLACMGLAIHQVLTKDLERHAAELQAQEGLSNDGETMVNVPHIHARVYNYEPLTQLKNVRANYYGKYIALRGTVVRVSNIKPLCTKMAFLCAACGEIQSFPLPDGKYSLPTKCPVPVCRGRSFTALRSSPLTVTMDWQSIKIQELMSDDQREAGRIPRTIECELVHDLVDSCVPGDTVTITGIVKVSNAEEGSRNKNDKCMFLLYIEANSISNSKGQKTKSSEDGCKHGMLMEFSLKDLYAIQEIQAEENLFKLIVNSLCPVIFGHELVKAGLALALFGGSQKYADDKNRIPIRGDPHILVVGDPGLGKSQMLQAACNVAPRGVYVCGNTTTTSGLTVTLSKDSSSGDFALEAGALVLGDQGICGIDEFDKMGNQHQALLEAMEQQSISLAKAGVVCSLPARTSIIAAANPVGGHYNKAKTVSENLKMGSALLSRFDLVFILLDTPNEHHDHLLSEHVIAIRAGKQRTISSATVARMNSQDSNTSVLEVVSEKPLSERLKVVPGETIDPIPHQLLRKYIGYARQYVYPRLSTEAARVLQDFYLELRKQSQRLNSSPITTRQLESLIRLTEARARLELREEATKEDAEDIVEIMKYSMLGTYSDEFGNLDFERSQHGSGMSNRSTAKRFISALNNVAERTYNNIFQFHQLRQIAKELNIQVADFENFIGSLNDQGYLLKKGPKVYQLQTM
Chain of human MCM8–9 complex, wild type (FLAG-MCM8 with MBP-MCM9, co-expressed) (human) (Q9NXL9 whole entry, chain 2 of 2, further chain): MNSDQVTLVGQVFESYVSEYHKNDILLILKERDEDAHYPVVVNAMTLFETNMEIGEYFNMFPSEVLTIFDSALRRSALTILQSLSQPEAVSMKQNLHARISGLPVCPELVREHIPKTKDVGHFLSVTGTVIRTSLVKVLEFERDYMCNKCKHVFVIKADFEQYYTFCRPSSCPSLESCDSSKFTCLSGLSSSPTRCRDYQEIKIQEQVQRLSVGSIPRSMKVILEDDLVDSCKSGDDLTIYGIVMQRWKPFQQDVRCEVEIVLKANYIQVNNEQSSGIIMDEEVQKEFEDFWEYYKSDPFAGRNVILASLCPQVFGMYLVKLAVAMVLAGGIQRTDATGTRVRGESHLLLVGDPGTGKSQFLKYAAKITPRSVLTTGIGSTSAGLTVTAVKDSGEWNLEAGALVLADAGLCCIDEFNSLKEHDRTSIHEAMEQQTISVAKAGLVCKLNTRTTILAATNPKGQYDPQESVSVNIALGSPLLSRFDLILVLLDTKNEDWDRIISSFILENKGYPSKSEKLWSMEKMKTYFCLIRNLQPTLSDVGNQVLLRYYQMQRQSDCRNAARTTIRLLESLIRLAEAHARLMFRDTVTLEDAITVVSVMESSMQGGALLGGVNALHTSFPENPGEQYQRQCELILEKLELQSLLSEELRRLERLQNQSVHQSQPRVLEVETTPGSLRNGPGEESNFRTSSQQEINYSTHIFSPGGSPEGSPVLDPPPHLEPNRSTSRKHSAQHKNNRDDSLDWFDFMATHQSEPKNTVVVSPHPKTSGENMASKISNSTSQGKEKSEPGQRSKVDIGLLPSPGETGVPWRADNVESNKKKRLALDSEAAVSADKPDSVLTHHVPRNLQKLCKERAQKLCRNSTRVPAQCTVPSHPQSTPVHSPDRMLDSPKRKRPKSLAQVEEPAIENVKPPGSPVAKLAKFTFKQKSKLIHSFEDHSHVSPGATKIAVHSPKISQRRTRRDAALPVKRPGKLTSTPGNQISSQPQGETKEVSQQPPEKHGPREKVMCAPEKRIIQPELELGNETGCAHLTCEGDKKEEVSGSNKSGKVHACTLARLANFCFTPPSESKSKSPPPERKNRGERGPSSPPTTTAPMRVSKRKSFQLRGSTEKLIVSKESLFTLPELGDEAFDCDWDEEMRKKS

In the case of Y-structure (PC1254/PC1253), in series [1], the K half turned out to be 55 nM. As for “HROB-FLAG, wild type human HROB (homologous recombination factor with OB-fold) (from UniProt Q8N3J3-4 1-646) (natural protein)”, the ATP hydrolysis by MCM8–9 (200 nM) without or with HROB, DNA as co-factor; stimulation 1.5 to 2-fold in series [2] lay within 1.5 to 2 fold. On to “Holliday junction (PC1253/PC1254/PC1255/PC1256)”, for which, in series [1], the K half was found to be 55 nM.

(Values after article PMC10350107.)
